± gives the standard deviation of the averaged measurements.
Key:
Saccharomyces cerevisiae [1] = test: protein stability index of tFT-peptide fusion (C-terminal peptide) (PSI (0-1 scale)); higher = more stable (slower turnover); details: genetic background: wild type; temperature: 30 C
Saccharomyces cerevisiae [2] = test: as above
Protocol: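 MPS profiling in S. cerevisiae of the tFT-X12 degron library: putative degron peptides plus stable controls, 12 aa, fused to the C-terminus of a sfGFP-mCherry timer. Cells are FACS-sorted into 8 mCherry/sfGFP bins and deep-sequenced. PSI runs from 0 (unstable) to 1 (stable). Backgrounds are wild type, das1Δ and doa10Δ at 30 °C, and wild type, das1Δ, cdc34-1 and cdc53-1 at 37 °C; 2-3 technical replicates each.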

[3] = genetic background: cdc34-1, temperature: 37 C
[4] = genetic background: cdc53-1, temperature: 37 C
[5] = genetic background: das1 deletion, temperature: 30 C
[6] = genetic background: das1 deletion, temperature: 37 C
[7] = genetic background: doa10 deletion, temperature: 30 C
[8] = genetic background: wild type, temperature: 30 C
[9] = genetic background: wild type, temperature: 37 C
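Further: PSI is a weighted mean of sequencing reads over stability bins, variants kept only with over 10 reads, mCherry proximal and sfGFP distal, peptide attached via GGGS linker.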

Row | Sequence | protein stability index (Saccharomyces cerevisiae [1]) | protein stability index (Saccharomyces cerevisiae [2]; [3]) | protein stability index (Saccharomyces cerevisiae [2]; [4]) | protein stability index (Saccharomyces cerevisiae [2]; [5]) | protein stability index (Saccharomyces cerevisiae [2]; [6]) | protein stability index (Saccharomyces cerevisiae [2]; [7]) | protein stability index (Saccharomyces cerevisiae [2]; [8]) | protein stability index (Saccharomyces cerevisiae [2]; [9])
1 | CLVLCLSIPSPL | 0.55 ± 0.08 | 0.607 ± 0.027 | 0.6246 ± 0.00068 | 0.497 ± 0.03 | 0.6133 ± 0.0046 | 0.501 ± 0.018 | 0.5 ± 0.015 | 0.606 ± 0.012
2 | CLVWLVRIIVLD | 0.298 ± 0.048 | 0.199 ± 0.019 | 0.268 ± 0.026 | 0.201 ± 0.031 | 0.366 ± 0.039 | 0.206 ± 0.005 | 0.195 ± 0.048 | 0.32 ± 0.025
3 | CPFFFFSLIFLF | 0.298 ± 0.017 | 0.16 ± 0.058 | 0.214 ± 0.044 | 0.228 ± 0.041 | 0.329 ± 0.011 | 0.349 ± 0.025 | 0.193 ± 0.03 | 0.284 ± 0.011
4 | CRLFPFPLLAQL | 0.488 ± 0.084 | 0.646 ± 0.034 | 0.7407 ± 0.003 | 0.628 ± 0.021 | 0.7522 ± 0.0063 | 0.425 ± 0.013 | 0.415 ± 0.025 | 0.484 ± 0.023
5 | CSAARKDGLAPL | 0.701 ± 0.024 | 0.697 ± 0.038 | 0.722 ± 0.02 | 0.649 ± 0.02 | 0.7342 ± 0.0011 | 0.633 ± 0.021 | 0.649 ± 0.029 | 0.719 ± 0.032
6 | CSLPVLFLPYYL | 0.486 ± 0.14 | 0.581 ± 0.025 | 0.5788 ± 0.0043 | 0.523 ± 0.022 | 0.625 ± 0.022 | 0.606 ± 0.014 | 0.492 ± 0.0051 | 0.572 ± 0.02
7 | CSPVNGSAVWSI | 0.699 ± 0.076 | 0.688 ± 0.032 | 0.736 ± 0.016 | 0.668 ± 0.02 | 0.7551 ± 0.00081 | 0.664 ± 0.019 | 0.667 ± 0.017 | 0.7093 ± 0.0046
8 | CSSFFLLLFFLF | 0.311 ± 0.019 | 0.351 ± 0.051 | 0.448 ± 0.018 | 0.335 ± 0.021 | 0.451 ± 0.029 | 0.301 ± 0.021 | 0.268 ± 0.01 | 0.407 ± 0.0056
9 | CSWMRSRMWVGG | 0.3994 ± 0.0039 | 0.33 ± 0.051 | 0.419 ± 0.03 | 0.422 ± 0.0063 | 0.36 ± 0.0087 | 0.454 ± 0.014 | 0.409 ± 0.013 | 0.346 ± 0.0053
10 | CTWGRYGGIWLR | 0.254 ± 0.058 | 0.0548 ± 0.007 | 0.0483 ± 0.033 | 0.136 ± 0.062 | 0.144 ± 0.013 | 0.668 ± 0.034 | 0.117 ± 0.023 | 0.11 ± 0.016
11 | CVFCLTVFVRFL | 0.243 ± 0.011 | 0.197 ± 0.0067 | 0.26 ± 0.018 | 0.192 ± 0.028 | 0.346 ± 0.015 | 0.128 ± 0.014 | 0.151 ± 0.022 | 0.2572 ± 0.0012
12 | CVFVWFWCMTWV | 0.168 ± 0.0053 | 0.171 ± 0.089 | 0.164 ± 0.016 | 0.0811 ± 0.048 | 0.313 ± 0.15 | 0.105 ± 0.069 | 0.117 ± 0.11 | 0.345 ± 0.13
13 | CVLFLGQILCVV | 0.332 ± 0.0076 | 0.266 ± 0.018 | 0.328 ± 0.01 | 0.28 ± 0.033 | 0.3857 ± 0.00079 | 0.236 ± 0.011 | 0.276 ± 0.017 | 0.339 ± 0.026
14 | CYSRRGCIYFFF | 0.192 ± 0.037 | 0.564 ± 0.029 | 0.693 ± 0.009 | 0.583 ± 0.016 | 0.698 ± 0.0099 | 0.0971 ± 0.018 | 0.101 ± 0.022 | 0.157 ± 0.0033
15 | DHSIYYGVAKVF | 0.163 ± 0.055 | 0.484 ± 0.017 | 0.652 ± 0.012 | 0.5745 ± 0.0018 | 0.694 ± 0.018 | 0.0729 ± 0.022 | 0.0841 ± 0.024 | 0.09554 ± 0.00036
16 | DKKNCIIIYYKQ | 0.147 ± 0.062 | 0.479 ± 0.053 | 0.706 ± 0.074 | 0.653 ± 0.021 | 0.6973 ± 0.0046 | 0.0802 ± 0.03 | 0.0804 ± 0.024 | 0.106 ± 0.011
17 | DLDLLTKFSKEC | 0.466 ± 0.03 | 0.702 ± 0.028 | 0.77 ± 0.013 | 0.628 ± 0.043 | 0.743 ± 0.028 | 0.4783 ± 0.0024 | 0.503 ± 0.025 | 0.656 ± 0.018
18 | DRHCLVSLSPDG | 0.5 ± 0.1 | 0.64 ± 0.03 | 0.665 ± 0.03 | 0.618 ± 0.015 | 0.686 ± 0.029 | 0.623 ± 0.016 | 0.6079 ± 0.0033 | 0.678 ± 0.033
19 | DRLAVLVLLRVY | 0.109 ± 0.017 | 0.0219 ± 0.0022 | 0.0458 ± 0.013 | 0.137 ± 0.041 | 0.182 ± 0.0035 | 0.0574 ± 0.01 | 0.0636 ± 0.018 | 0.0571 ± 0.016
20 | DRRFLVMISVSL | 0.398 ± 0.039 | 0.33 ± 0.01 | 0.357 ± 0.016 | 0.272 ± 0.045 | 0.458 ± 0.008 | 0.251 ± 0.0083 | 0.262 ± 0.028 | 0.414 ± 0.0086
21 | DRSPLPAIFVAQ | 0.681 ± 0.047 | 0.7 ± 0.028 | 0.746 ± 0.021 | 0.674 ± 0.013 | 0.7428 ± 0.0073 | 0.665 ± 0.013 | 0.643 ± 0.012 | 0.733 ± 0.016
22 | DTAFLLVVVVGR | 0.373 ± 0.042 | 0.309 ± 0.0076 | 0.358 ± 0.036 | 0.257 ± 0.028 | 0.446 ± 0.017 | 0.213 ± 0.0084 | 0.232 ± 0.032 | 0.411 ± 0.029
23 | DYIFVYAVMFMR | 0.265 ± 0.045 | 0.14 ± 0.046 | 0.292 ± 0.046 | 0.152 ± 0.026 | 0.319 ± 0.02 | 0.116 ± 0.0035 | 0.118 ± 0.031 | 0.308 ± 0.02
24 | EFCITAFVSVLT | 0.435 ± 0.012 | 0.452 ± 0.029 | 0.431 ± 0.017 | 0.324 ± 0.033 | 0.483 ± 0.017 | 0.287 ± 0.011 | 0.329 ± 0.025 | 0.462 ± 0.0064
25 | EGLRVSVCAWVM | 0.339 ± 0.023 | 0.38 ± 0.043 | 0.467 ± 0.0075 | 0.313 ± 0.03 | 0.4385 ± 0.0017 | 0.253 ± 0.019 | 0.277 ± 0.013 | 0.421 ± 0.0079
26 | EHIRWLLPKHCL | 0.454 ± 0.041 | 0.681 ± 0.027 | 0.73 ± 0.026 | 0.647 ± 0.03 | 0.725 ± 0.03 | 0.2907 ± 0.0018 | 0.314 ± 0.017 | 0.613 ± 0.063
27 | EIKTEIGKKKKN | 0.503 ± 0.0079 | 0.632 ± 0.2 | 0.671 ± 0.022 | 0.723 ± 0.05 | 0.658 ± 0.045 | 0.541 ± 0.0061 | 0.61 ± 0.028 | 0.608 ± 0.067
28 | EINRKKRKTKIN | 0.436 ± 0.04 | 0.704 ± 0.047 | 0.7155 ± 0.0039 | 0.67 ± 0.047 | 0.771 ± 0.011 | 0.312 ± 0.023 | 0.373 ± 0.018 | 0.465 ± 0.044
29 | ERGSLPRIHHLI | 0.257 ± 0.0082 | 0.6542 ± 0.0035 | 0.754 ± 0.017 | 0.688 ± 0.085 | 0.736 ± 0.011 | 0.127 ± 0.012 | 0.168 ± 0.034 | 0.31 ± 0.02
30 | ERLVFKRWYLCL | 0.123 ± 0.018 | 0.585 ± 0.028 | 0.605 ± 0.062 | 0.571 ± 0.033 | 0.7056 ± 0.0052 | 0.0726 ± 0.026 | 0.0951 ± 0.039 | 0.136 ± 0.0091
